# In patent US20020142429:
# Tests used:
# [1] = molecular target: Dictyostelium myosin (myosin heavy chains), P08799
# [2] = molecular target: rabbit reticulocyte eEF-2, P55823
# Sequence of Dictyostelium myosin (myosin heavy chains), P08799 (P08799 whole entry): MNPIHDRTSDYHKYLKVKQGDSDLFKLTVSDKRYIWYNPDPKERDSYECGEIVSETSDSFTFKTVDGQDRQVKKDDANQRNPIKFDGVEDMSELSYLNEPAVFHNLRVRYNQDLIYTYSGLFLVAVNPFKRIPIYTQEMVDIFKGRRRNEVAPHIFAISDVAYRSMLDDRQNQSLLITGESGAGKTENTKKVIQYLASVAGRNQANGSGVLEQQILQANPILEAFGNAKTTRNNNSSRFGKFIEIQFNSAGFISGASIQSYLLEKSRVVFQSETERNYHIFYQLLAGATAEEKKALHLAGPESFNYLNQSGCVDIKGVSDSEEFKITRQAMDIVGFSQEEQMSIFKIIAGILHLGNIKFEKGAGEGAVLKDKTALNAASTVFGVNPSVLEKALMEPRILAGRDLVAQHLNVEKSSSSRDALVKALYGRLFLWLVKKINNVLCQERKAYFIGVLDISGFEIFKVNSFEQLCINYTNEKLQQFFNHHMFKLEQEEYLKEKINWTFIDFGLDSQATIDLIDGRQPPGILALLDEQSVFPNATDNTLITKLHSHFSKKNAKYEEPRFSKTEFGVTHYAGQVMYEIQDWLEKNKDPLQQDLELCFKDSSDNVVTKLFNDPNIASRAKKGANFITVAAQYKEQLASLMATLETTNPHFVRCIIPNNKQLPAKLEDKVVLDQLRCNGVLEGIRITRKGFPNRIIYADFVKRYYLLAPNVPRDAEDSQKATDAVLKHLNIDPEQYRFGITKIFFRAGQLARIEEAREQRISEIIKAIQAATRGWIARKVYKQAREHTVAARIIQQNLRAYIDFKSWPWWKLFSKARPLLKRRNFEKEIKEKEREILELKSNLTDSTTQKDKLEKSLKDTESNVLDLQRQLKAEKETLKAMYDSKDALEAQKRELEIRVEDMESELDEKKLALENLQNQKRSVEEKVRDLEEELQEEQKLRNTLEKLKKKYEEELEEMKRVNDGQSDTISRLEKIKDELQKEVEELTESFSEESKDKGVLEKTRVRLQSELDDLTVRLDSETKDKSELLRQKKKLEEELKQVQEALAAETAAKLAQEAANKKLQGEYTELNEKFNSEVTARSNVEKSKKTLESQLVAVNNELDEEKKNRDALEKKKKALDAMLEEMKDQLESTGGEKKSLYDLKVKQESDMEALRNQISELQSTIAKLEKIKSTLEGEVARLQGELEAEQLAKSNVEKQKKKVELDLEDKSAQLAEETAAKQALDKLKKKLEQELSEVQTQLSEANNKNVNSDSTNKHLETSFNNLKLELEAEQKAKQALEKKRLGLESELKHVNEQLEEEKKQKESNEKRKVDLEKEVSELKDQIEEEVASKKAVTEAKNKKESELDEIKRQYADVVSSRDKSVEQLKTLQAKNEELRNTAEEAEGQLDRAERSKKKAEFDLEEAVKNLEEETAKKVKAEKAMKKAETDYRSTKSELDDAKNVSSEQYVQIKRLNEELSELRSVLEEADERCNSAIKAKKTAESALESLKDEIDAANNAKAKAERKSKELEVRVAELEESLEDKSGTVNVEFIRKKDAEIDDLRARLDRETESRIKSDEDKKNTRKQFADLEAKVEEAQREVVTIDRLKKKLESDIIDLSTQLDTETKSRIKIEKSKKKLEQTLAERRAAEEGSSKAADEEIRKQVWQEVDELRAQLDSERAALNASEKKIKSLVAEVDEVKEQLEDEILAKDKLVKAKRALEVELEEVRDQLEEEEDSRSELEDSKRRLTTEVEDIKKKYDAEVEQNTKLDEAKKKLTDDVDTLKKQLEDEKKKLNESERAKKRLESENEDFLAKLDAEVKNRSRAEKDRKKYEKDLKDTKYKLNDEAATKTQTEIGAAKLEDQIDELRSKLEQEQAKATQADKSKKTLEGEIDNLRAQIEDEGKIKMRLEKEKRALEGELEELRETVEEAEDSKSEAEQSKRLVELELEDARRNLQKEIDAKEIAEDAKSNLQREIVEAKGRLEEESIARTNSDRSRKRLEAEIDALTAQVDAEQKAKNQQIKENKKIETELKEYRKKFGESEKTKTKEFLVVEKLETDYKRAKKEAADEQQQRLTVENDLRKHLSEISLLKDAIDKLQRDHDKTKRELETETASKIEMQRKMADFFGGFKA
protein,measurement,setting,value
myosin heavy chain kinase A (MHCK A) from Dictyostelium (protein) MFNIKKRKESITGIPPINVNSPQSVPLSGTLQSPLITPNSPNFVSRQCPFKKFGCSSFLVSKAEFDNHLKDDAQFHLQLAVEKFDHQFDLHTQLMAHFTEQMEDQLEKTMKVVRNHTDSLGGNVQTKLDEGIEKCMAFAKKVEQQQQQLAKRLITQQIQEKKSTSSPLVKGGISGGGGSGGDDSFDGANISSMSTSKQELQQELQSLSIKMKKELTELSDELSQKLERSTGNIDIKIKRIEGEVNEKIDKRQLVSTIDDSIGKKTDSIGYTLESSIIKKVEEKEKKKSEQNQLLFDSKIESLKDKIKIIETQQLDTSSEVRKLKLESTSSGNLMAGLNGTSGRPSSSSHFIPSSVSAAANNINKNEIMEEVKKVEEKLQKKIREEIDNTKSELSKVERSVKDNRSEIEGLEKDCKNQFDKQDNKIKQVEDDLKKSDSLLLLMQNNLKKYNEFVDRERDRESERLKLQDSIKRLEQNQKKIEAEIQEGNEQVERVLREEASISPISSVPKSPITTKRSSIILNSPPMTSQQSSPKIQDLLSSSGSSSVSGINISSETGEMGILWEFDPIINKWIRLSMKLKVERKPFAEGALREAYHTVSLGVGTDENYPLGTTTKLFPPIEMISPISKNNEAMTQLKNGTKFVLKLYKKEAEQQASRELYFEDVKMQMVCRDWGNKFNQKKPPKKIEFLMSWVVELIDRSPSSNGQPILCSIEPLLVGEFKKNNSNYGAVLTNRSTPQAFSHFTYELSNKQMIVVDIQGVDDLYTDPQIHTPDGKGFGLGNLGKAGINKFITTHKCNAVCALLDLDVKLGGVLSGNNKKQLQQGTMVMPDILPELMPSDNTIKVGAKQLPKAEFSKKDLKCVSTIQSFRERVNSIAFFDNQKLLCAGYGDGTYRVFDVNDNWKCLYTVNGHRKSIESIACNSNYIFTSSPDNTIKVHIIRSGNTKCIETLVGHTGEVNCVVANEKYLFSCSYDKTIKVWDLSTFKEIKSFEGVHTKYIKTLALSGRYLFSGGNDQIIYVWDTETLSMLFNMQGHEDWVLSLHCTASYLFSTSKDNVIKIWDLSNFSCIDTLKGHWNSVSSCVVKDRYLYSGSEDNSIKVWDLDTLECVYTIPKSHSLGVKCLMVFNNQIISAAFDGSIKVWEWQSK,"phosphorylation assay (substrate specificity), 10 min",[1],each of these kinases is specific for their respective substrates
same,"phosphorylation assay (substrate specificity), 10 min",[2],MHCK A cannot phosphorylate eEF-2
recombinant C. elegans eEF-2 kinase (translation products of the mixture of Cefk-1 and Cefk-2) (protein) MTIDTTNESDNSPTNSPGLEASARTFSLNASKMVRITDDYADEVFIEQNDVVIEKPRMDPLHVRKLMETWRKAARRARTNYIDPWDEFNIHEYPVQRAKRYRYSAIRKQWTEDIVDVRLHPDSFARGAMRECYRLKKCSKHGTSQDWSSNYVAKRYICQVDRRVLFDDVRLQMDAKLWAEEYNRYNPPKKIDIVQMCVIEMIDVKGSPLYHLEHFIEGKYIKYNSNSGFVSNAARLTPQAFSHFTFERSGHQMMVVDIQGVGDLYTDPQIHTVVGTDYGDGNLGTRGMALFFHSHRCNDICETMDLSNFELSPPEIEATEVAMEVAAKQKKSCIVPPTVFEARRNRISSECVHVEHGISMDQLRKRKTLNQSSTDLSAKSHNEDCVCPECIPVVEQLCEPCSEDEEDEEEDYPRSEKSGNSQKSRRSRMSISTRSSGDESASRPRKCGFVDLNSLRQRHDSFRSSVGTYSMNSSRQTRDTEKDEFWKVLRKQSVPANILSLQLQQMAANLENDEDVPQVTGHQFSVLGQIHIDLSRYHELGRFVEVDSEHKEMLEGSENDARVPIKYDKQSAIFHLDIARKCGILEAVLTSAHIVLGLPHELLKEVTVDDLFPNGFGEQENGIRADKGQKPCDLEEFGSDLMEIAAEMGDKGAMLYMAHAYETGQHLGPNRRTDYKKSIDWYQRVVGFQEEEELDSDCGKTTFSSFAPLTRHEILAKMAEMYKEGGYGLNQDFERAYGLFNEAAEAAMEAMNGKLANKYYEKAEMCGE,eEF-2 phosphorylation activity in the presence and absence of Ca2+ and calmodulin,calmodulin,The eEF-2 phosphorylation activity of the recombinant protein is Ca^2+/calmodulin-dependant
same,"eEF-2 kinase activity: phosphorylation of eEF-2 with [gamma-32P]ATP, SDS/PAGE and autoradiography",[2],The translation products of the mixture of Cefk-1 and Cefk-2 are able to phosphorylate eEF-2
human eEF-2 kinase glutathione S-transferase fusion protein (protein) MADEDLIFRLEGVDGGQSPRAGHDGDSDGDSDDEEGYFICPITDDPSSNQNVNSKVNKYYSNLTKSERYSSSGSPANSFHFKEAWKHAIQKAKHMPDPWAEFHLEDIATERATRHRYNAVTGEWLDDEVLIKMASQPFGRGAMRECFRTKKLSNFLHAQQWKGASNYVAKRYIEPVDRDVYFEDVRLQMEAKLWGEEYNRHKPPKQVDIMQMCIIELKDRPGKPLFHLEHYIEGKYIKYNSNSGFVRDDNIRLTPQAFSHFTFERSGHQLIVVDIQGVGDLYTDPQIHTETGTDFGDGNLGVRGMALFFYSHACNRICESMGLAPFDLSPRERDAVNQNTKLLQSAKTILRGTEEKCGSPQVRTLSGSRPPLLRPLSENSGDENMSDVTFDSLPSSPSSATPHSQKLDHLHWPVFSDLDNMASRDHDHLDNHRESENSGDSGYPSEKRGELDDPEPREHGHSYSNRKYESDEDSLGSSGRVCVEKWNLLNSSRLHLPRASAVALEVQRLNALDLEKKIGKSILGKVHLAMVRYHEGGRFCEKGEEWDQESAVFHLEHAANLGELEAIVGLGLMYSQLPHHILADVSLKETEENKTKGFDYLLKAAEAGDRQSMILVARAFDSGQNLSPDRCQDWLEALHWYNTALEMTDCDEGGEYDGMQDEPRYMMLAREAEMLFTGGYGLEKDPQRSGDLYTQAAEAAMEAMKGRLANQYYQKAEEAWAQMEE,"phosphorylation of eEF-2 and autophosphorylation, dependence on calmodulin",calmodulin,the ability of the recombinant enzyme to phosphorylate eEF-2 and to undergo autophosphorylation are strictly calmodulin-dependent (data not shown)
same,ability to phosphorylate eEF-2,[2],All of the fusion eEF-2 kinase preparations were able to efficiently phosphorylate eEF-2 (data not shown)
same,phosphorylation of eEF-2,[2],the ability of the recombinant enzyme to phosphorylate eEF-2 and to undergo autophosphorylation are strictly calmodulin-dependent (data not shown)
human eEF-2 kinase thioredoxin fusion protein (protein) MADEDLIFRLEGVDGGQSPRAGHDGDSDGDSDDEEGYFICPITDDPSSNQNVNSKVNKYYSNLTKSERYSSSGSPANSFHFKEAWKHAIQKAKHMPDPWAEFHLEDIATERATRHRYNAVTGEWLDDEVLIKMASQPFGRGAMRECFRTKKLSNFLHAQQWKGASNYVAKRYIEPVDRDVYFEDVRLQMEAKLWGEEYNRHKPPKQVDIMQMCIIELKDRPGKPLFHLEHYIEGKYIKYNSNSGFVRDDNIRLTPQAFSHFTFERSGHQLIVVDIQGVGDLYTDPQIHTETGTDFGDGNLGVRGMALFFYSHACNRICESMGLAPFDLSPRERDAVNQNTKLLQSAKTILRGTEEKCGSPQVRTLSGSRPPLLRPLSENSGDENMSDVTFDSLPSSPSSATPHSQKLDHLHWPVFSDLDNMASRDHDHLDNHRESENSGDSGYPSEKRGELDDPEPREHGHSYSNRKYESDEDSLGSSGRVCVEKWNLLNSSRLHLPRASAVALEVQRLNALDLEKKIGKSILGKVHLAMVRYHEGGRFCEKGEEWDQESAVFHLEHAANLGELEAIVGLGLMYSQLPHHILADVSLKETEENKTKGFDYLLKAAEAGDRQSMILVARAFDSGQNLSPDRCQDWLEALHWYNTALEMTDCDEGGEYDGMQDEPRYMMLAREAEMLFTGGYGLEKDPQRSGDLYTQAAEAAMEAMKGRLANQYYQKAEEAWAQMEE,ability to phosphorylate eEF-2,[2],All of the fusion eEF-2 kinase preparations were able to efficiently phosphorylate eEF-2 (data not shown)
recombinant human eEF-2 kinase (expressed in a coupled transcription/translation system) (protein) MADEDLIFRLEGVDGGQSPRAGHDGDSDGDSDDEEGYFICPITDDPSSNQNVNSKVNKYYSNLTKSERYSSSGSPANSFHFKEAWKHAIQKAKHMPDPWAEFHLEDIATERATRHRYNAVTGEWLDDEVLIKMASQPFGRGAMRECFRTKKLSNFLHAQQWKGASNYVAKRYIEPVDRDVYFEDVRLQMEAKLWGEEYNRHKPPKQVDIMQMCIIELKDRPGKPLFHLEHYIEGKYIKYNSNSGFVRDDNIRLTPQAFSHFTFERSGHQLIVVDIQGVGDLYTDPQIHTETGTDFGDGNLGVRGMALFFYSHACNRICESMGLAPFDLSPRERDAVNQNTKLLQSAKTILRGTEEKCGSPQVRTLSGSRPPLLRPLSENSGDENMSDVTFDSLPSSPSSATPHSQKLDHLHWPVFSDLDNMASRDHDHLDNHRESENSGDSGYPSEKRGELDDPEPREHGHSYSNRKYESDEDSLGSSGRVCVEKWNLLNSSRLHLPRASAVALEVQRLNALDLEKKIGKSILGKVHLAMVRYHEGGRFCEKGEEWDQESAVFHLEHAANLGELEAIVGLGLMYSQLPHHILADVSLKETEENKTKGFDYLLKAAEAGDRQSMILVARAFDSGQNLSPDRCQDWLEALHWYNTALEMTDCDEGGEYDGMQDEPRYMMLAREAEMLFTGGYGLEKDPQRSGDLYTQAAEAAMEAMKGRLANQYYQKAEEAWAQMEE,eEF-2 kinase activity in the presence and absence of Ca2+ and calmodulin,calmodulin,the recombinant human eEF-2 kinase activity was strictly Ca^2+/calmodulin-dependant
human eEF-2 kinase 6xHis fusion protein (protein) MADEDLIFRLEGVDGGQSPRAGHDGDSDGDSDDEEGYFICPITDDPSSNQNVNSKVNKYYSNLTKSERYSSSGSPANSFHFKEAWKHAIQKAKHMPDPWAEFHLEDIATERATRHRYNAVTGEWLDDEVLIKMASQPFGRGAMRECFRTKKLSNFLHAQQWKGASNYVAKRYIEPVDRDVYFEDVRLQMEAKLWGEEYNRHKPPKQVDIMQMCIIELKDRPGKPLFHLEHYIEGKYIKYNSNSGFVRDDNIRLTPQAFSHFTFERSGHQLIVVDIQGVGDLYTDPQIHTETGTDFGDGNLGVRGMALFFYSHACNRICESMGLAPFDLSPRERDAVNQNTKLLQSAKTILRGTEEKCGSPQVRTLSGSRPPLLRPLSENSGDENMSDVTFDSLPSSPSSATPHSQKLDHLHWPVFSDLDNMASRDHDHLDNHRESENSGDSGYPSEKRGELDDPEPREHGHSYSNRKYESDEDSLGSSGRVCVEKWNLLNSSRLHLPRASAVALEVQRLNALDLEKKIGKSILGKVHLAMVRYHEGGRFCEKGEEWDQESAVFHLEHAANLGELEAIVGLGLMYSQLPHHILADVSLKETEENKTKGFDYLLKAAEAGDRQSMILVARAFDSGQNLSPDRCQDWLEALHWYNTALEMTDCDEGGEYDGMQDEPRYMMLAREAEMLFTGGYGLEKDPQRSGDLYTQAAEAAMEAMKGRLANQYYQKAEEAWAQMEE,ability to phosphorylate eEF-2,[2],All of the fusion eEF-2 kinase preparations were able to efficiently phosphorylate eEF-2 (data not shown)
